Assay [1] addresses VEGFR-3/Ig重组蛋白 (R&D research system corp.) (human) (UniProt P35916). Put plainly: ELISA, coated VEGFR-3/Fc 0.5 μg/mL, negative control.
The target of another assay is 正常人IgG (北京中杉金桥有限公司). Put plainly: ELISA, coated normal human IgG 0.5 μg/mL, negative control.
Assay [2] addresses T1, VEGFR-3/Ig重组蛋白 (R&D research system corp.) (human, UniProt P35916 25-776).
T1 construct: Bought protein; also called VEGFR-3/Fc; VEGFR-3/IgG; not shown: Ig/Fc part of the bought fusion
T1 sequence (looked up): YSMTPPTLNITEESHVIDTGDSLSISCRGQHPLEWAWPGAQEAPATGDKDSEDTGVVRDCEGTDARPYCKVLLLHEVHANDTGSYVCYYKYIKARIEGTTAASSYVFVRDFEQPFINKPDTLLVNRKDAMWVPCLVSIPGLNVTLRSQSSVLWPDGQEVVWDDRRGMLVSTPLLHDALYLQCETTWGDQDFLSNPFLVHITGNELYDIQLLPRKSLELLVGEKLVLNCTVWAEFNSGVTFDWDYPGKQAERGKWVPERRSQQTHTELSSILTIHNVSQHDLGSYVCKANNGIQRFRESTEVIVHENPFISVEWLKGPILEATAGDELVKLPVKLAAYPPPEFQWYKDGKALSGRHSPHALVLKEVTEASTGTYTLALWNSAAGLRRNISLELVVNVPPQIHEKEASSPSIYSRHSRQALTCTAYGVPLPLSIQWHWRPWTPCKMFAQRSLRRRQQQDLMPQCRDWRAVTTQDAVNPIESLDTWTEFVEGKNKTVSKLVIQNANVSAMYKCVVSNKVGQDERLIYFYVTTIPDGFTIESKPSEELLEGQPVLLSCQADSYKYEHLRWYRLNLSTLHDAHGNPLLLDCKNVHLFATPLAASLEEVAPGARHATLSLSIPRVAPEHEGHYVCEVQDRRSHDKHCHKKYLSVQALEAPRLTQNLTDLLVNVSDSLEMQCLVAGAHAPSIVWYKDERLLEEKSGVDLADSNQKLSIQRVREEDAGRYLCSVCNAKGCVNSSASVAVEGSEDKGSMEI
Put plainly: ELISA-type assay, OD450; VEGFR-3/Fc 1 and 2 μg/mL mixed with 20 μg/mL GST-VEGF-D (Fig. 1). A general note: An ELISA detects its analyte on a solid surface through an enzyme-linked reagent.

Assay [3] deals with VEGFR-3/Ig重组蛋白 (R&D research system corp.) (human) (UniProt P35916). Put plainly: ELISA, coated VEGFR-3/Fc 0.5 μg/mL, scFv at 6.5 μg/mL.
Assay [4] shares this target. Put plainly: ELISA, coated VEGFR-3/Fc 0.5 μg/mL, scFv at 65 μg/mL.
For assay [5] the target is unchanged. Put plainly: ELISA, coated VEGFR-3/Fc 0.5 μg/mL, scFv at 13 μg/mL.
Another assay concerns the target T2, HEL细胞表面表达的VEGFR-3 (human, UniProt P35916 25-1363).
T2 construct: whole, on cells; On whole HEL cells in flow cytometry; in HEL cell lysate in the immunoblot; also called VEGFR-3多肽 (175kDa, 125kDa bands of HEL lysate)
Put plainly: Western blot of HEL cell lysate (Fig. 4). In general terms: A western blot detects proteins with antibodies after separation by electrophoresis.

For assay [6], the target named is VEGFR-3/Ig重组蛋白 (R&D research system corp.) (human) (UniProt P35916). Put plainly: ELISA, coated VEGFR-3/Fc 0.5 μg/mL, supernatant of hybridoma BDD073.

With 正常鼠血清(1∶1000), the OD 450 came to 0.05 OD450 in assay [1] and 0.064 OD450 with 正常人IgG (北京中杉金桥有限公司).

B1: 重组人GST-VEGF-D (ligand, human, UniProt O43915 89-205, looked up)
chain: FAATFYDIETLKVIDEEWQRTQCSPRETCVEVASELGKSTNTFFKPPCVNVFRCGGCCNEESLICMNTSTSYISKQLFEISVPLTSVPELVPVKVANHTGCKCLPTAPRHPYSIIRR
notes: domain: VHD; Expressed in E. coli BL21(DE3), 38 kD, purified on a GST column; not shown: GST tag encoded by vector pGEX-5X-1 (Amersham)
For the molecule B1, the binding result in assay [2] is given as “binds”.

B2: 可溶性抗VEGFR-3单链抗体VL-linker-VH (scFv, not shown: large carriers)
scFv: DIVLTQSPASLAVSLGQRATISCRASKSVSTFGYSYMHWYQQKPGQPPKLLIYLASNLESGVPARFSGSGSGTDFTLNIHPVEEEDAATYYCQHSRELMYTFGGGTKLEIKRGGGGSGGGGSGGSQVQLQESGGGLVRPRGSLKLSCAASGFTFNTYAMNWVRQAPGKGLEWIARIRNKSNNYATYYANSVKDRFTISRGDSQSMLYLQMNNLKTEDTAMYYCVRDGYSLVHWGHGTLVTVS
As to B2, the OD 450 in assay [3] was found to be 0.515 OD450; in assay [4] it was 1.01 OD450; in assay [5], 0.73 OD450.

B3: 抗人VEGFR-3的单克隆抗体ABDD073 (antibody, mouse IgG2a, V domains shown)
VH: QVQLQESGGGLVRPRGSLKLSCAASGFTFNTYAMNWVRQAPGKGLEWIARIRNKSNNYATYYANSVKDRFTISRGDSQSMLYLQMNNLKTEDTAMYYCVRDGYSLVHWGHGTLVTVS
VL: DIVLTQSPASLAVSLGQRATISCRASKSVSTFGYSYMHWYQQKPGQPPKLLIYLASNLESGVPARFSGSGSGTDFTLNIHPVEEEDAATYYCQHSRELMYTFGGGTKLEIKR
notes: The 132-residue entry was amplified with a primer that starts at ATG, so it may hold a leader; also called BDD073上清; monoclonal antibody of hybridoma BDD073 CGMCC No.1537
Take B3: the binding result with HEL细胞表面表达的VEGFR-3 was “binds”. In assay [6], this molecule had an OD 450 of 0.889 OD450.

The values are drawn from CN1800373A (RADIOLOGY INST OF PLA MILITARY, dated 2006).
